Like-named read-outs stand apart in the source and are kept apart here.

Experimental findings from publication PMC11538491 are described below.

Assay [1] addresses parvovirus B19 (B19V) virion purified from infected patient plasma, genotype 1 (human parvovirus B19). The assay is described as follows: cryo-EM structure.
Assay [2] has the same target. The assay is described as follows: cryo-EM structure. The source holds these as a separate data set.

Take “inter-alpha-trypsin inhibitor heavy chain 4 (ITIH4) from human plasma, bound to the B19V capsid (natural protein)”: in assay [1], the occupancy of the binding sites stood at 19.4% and the stoichiometry N (molecules per capsid) was 12.

B1: serpinA3 from human plasma, bound to the B19V capsid (natural protein)
chain: HPNSPLDEENLTQENQDRGTHVDLGLASANVDFAFSLYKQLVLKAPDKNVIFSPLSISTALAFLSLGAHNTTLTEILKGLKFNLTETSEAEIHQSFQHLLRTLNQSSDELQLSMGNAMFVKEQLSLLDRFTEDAKRLYGSEAFATDFQDSAAAKKLINDYVKNGTRGKITDLIKDLDSQTMMVLVNYIFFKAKWEMPFDPQDTHQSRFYLSKKKWVMVPMMSLHHLTIPYFRDEELSCTVVELKYTGNASALFILPDQDKMEEVEAMLLPETLKRWRDSLEFREIGELYLPKFSISRDYNLNDILLQLGIEEAFTSKADLSGITGARNLAVSQVVHKAVLDVFEEGTEASAATAVKITLLSALVETRTIVRFNRPFLMIIVPTDTQNIFFMSKVTNPKQA
modifications: five extra densities at the predicted N-glycosylation sites (positions not given)
B1: in assay [2], the occupancy of the binding sites amounted to 38.3%, the stoichiometry N (molecules per capsid) stood at 23 and the stoichiometry N (sites occupied per capsid (of 30)) was determined as 22.
